Reference: patent EP4755449A2 (CHUGAI SEIYAKU KABUSHIKI KAISHA, dated 2026)

T1: cyno Fc gamma RIIb extracellular domain, His-tagged (cynomolgus monkey)
T1 construct: also called cynoFcgRIIb
T1 chain: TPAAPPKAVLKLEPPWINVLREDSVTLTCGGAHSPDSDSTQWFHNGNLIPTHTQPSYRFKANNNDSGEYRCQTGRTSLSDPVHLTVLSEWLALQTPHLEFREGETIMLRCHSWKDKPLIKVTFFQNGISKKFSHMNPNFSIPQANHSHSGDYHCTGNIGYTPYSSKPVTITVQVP

T2: human Fc gamma RIIb extracellular domain, His-tagged (human, UniProt P31994 43-217)
T2 construct: also called FcgRIIb
T2 sequence: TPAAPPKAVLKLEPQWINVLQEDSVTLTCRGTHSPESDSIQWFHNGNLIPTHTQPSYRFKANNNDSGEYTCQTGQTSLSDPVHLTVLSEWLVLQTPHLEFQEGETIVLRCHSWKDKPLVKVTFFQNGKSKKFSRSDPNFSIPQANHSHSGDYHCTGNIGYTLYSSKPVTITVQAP

T3: human latent myostatin (human, UniProt O14793 25-266; O14793 267-375)
T3 construct: non-covalent complex of two propeptides and the mature homodimer; also called human myostatin latent form
T3 sequence 1: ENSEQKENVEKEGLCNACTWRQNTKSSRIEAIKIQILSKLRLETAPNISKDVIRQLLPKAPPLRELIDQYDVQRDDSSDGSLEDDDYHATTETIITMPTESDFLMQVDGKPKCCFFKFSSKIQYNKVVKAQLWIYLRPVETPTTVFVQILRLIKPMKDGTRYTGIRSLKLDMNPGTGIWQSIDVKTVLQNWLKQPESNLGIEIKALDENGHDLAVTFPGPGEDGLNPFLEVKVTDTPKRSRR
T3 sequence 2: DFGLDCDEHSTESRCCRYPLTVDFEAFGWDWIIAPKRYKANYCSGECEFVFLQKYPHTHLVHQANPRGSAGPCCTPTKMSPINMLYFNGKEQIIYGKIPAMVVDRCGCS

T4: cynomolgus monkey latent myostatin (cynomolgus monkey, UniProt Q95J86 25-266; Q95J86 267-375, limits assumed)
T4 construct: also called cyno latent myostatin
T4 sequence 1: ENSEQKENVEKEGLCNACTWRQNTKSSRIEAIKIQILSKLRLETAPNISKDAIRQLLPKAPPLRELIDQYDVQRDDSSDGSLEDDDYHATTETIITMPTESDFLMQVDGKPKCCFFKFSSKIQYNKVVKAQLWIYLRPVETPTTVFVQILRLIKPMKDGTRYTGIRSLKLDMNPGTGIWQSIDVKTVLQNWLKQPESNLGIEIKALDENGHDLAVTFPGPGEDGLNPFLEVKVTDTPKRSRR
T4 sequence 2: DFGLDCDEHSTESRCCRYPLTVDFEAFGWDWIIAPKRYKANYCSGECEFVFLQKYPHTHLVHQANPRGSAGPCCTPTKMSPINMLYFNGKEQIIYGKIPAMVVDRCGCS

T5: mouse latent myostatin (mouse, UniProt O08689 26-267; O08689 268-376)
T5 sequence 1: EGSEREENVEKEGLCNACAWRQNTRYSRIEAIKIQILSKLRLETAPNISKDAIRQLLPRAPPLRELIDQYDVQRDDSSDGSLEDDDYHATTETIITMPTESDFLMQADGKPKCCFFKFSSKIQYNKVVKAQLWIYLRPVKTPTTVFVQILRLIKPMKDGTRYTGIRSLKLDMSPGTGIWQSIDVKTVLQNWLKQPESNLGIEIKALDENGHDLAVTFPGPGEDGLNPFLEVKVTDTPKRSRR
T5 sequence 2: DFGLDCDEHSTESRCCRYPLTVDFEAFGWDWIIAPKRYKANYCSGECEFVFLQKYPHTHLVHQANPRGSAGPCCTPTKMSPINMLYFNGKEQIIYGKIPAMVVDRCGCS


Key:
[1] = target: T1, cyno Fc gamma RIIb extracellular …; experiment: SPR 25C
[2] = target: T2, human Fc gamma RIIb extracellular …; experiment: SPR 25C
human latent myostatin [3] = target: T3, human latent myostatin; experiment: SPR 37C pH7.4; pH 7.4
[4] = target: T4, cynomolgus monkey latent myostatin; experiment: SPR 37C pH7.4; pH 7.4
mouse latent myostatin [5] = target: T5, mouse latent myostatin; experiment: SPR 37C pH7.4; pH 7.4
human latent myostatin [6] = target: T3, human latent myostatin; experiment: SPR 37C pH5.8; pH 5.8
[7] = target: T4, cynomolgus monkey latent myostatin; experiment: SPR 37C pH5.8; pH 5.8
mouse latent myostatin [8] = target: T5, mouse latent myostatin; experiment: SPR 37C pH5.8; pH 5.8
human latent myostatin [9] = target: T3, human latent myostatin; experiment: SPR 37C
[10] = target: T4, cynomolgus monkey latent myostatin; experiment: SPR 37C
mouse latent myostatin [11] = target: T5, mouse latent myostatin; experiment: SPR 37C
human latent myostatin [12] = target: T3, human latent myostatin; experiment: SPR avidity condition pH7.4 37C; pH 7.4
human latent myostatin [13] = target: T3, human latent myostatin; experiment: SPR avidity condition pH5.8 37C; pH 5.8
human latent myostatin [14] = target: T3, human latent myostatin; experiment: SPR affinity condition pH7.4 37C

| Binder | binding result [1] | binding result [2] | Kd (human latent myostatin [3]) [nM] | Kd [4] [nM] | Kd (mouse latent myostatin [5]) [nM] | Kd (human latent myostatin [6]) [nM] | Kd [7] [nM] | Kd (mouse latent myostatin [8]) [nM] | ratio of KD at pH 5.8/pH7.4 (human latent myostatin [9]) | ratio of KD at pH 5.8/pH7.4 [10] | ratio of KD at pH 5.8/pH7.4 (mouse latent myostatin [11]) | Kd (human latent myostatin [12]) [nM] | koff (human latent myostatin [12]) [s⁻¹] | kon (human latent myostatin [12]) [M⁻¹ s⁻¹] | Kd (human latent myostatin [13]) [nM] | koff (human latent myostatin [13]) [s⁻¹] | kon (human latent myostatin [13]) [M⁻¹ s⁻¹] | Kd (human latent myostatin [14]) [nM] | koff (human latent myostatin [14]) [s⁻¹] | kon (human latent myostatin [14]) [M⁻¹ s⁻¹] |
| --- | --- | --- | --- | --- | --- | --- | --- | --- | --- | --- | --- | --- | --- | --- | --- | --- | --- | --- | --- | --- |
| MS_M103205H1004-SG1/M103202L889-SK1 (antibody, human IgG1, kappa, V domains shown, also called MS1032LO07-SG1) VH: QVTLKESGPVLVKPTETLTLTCTVSGIDLSHDDISWVRQAPGKGLEWVGIISYAGSMYYASWAKGRLTISKDTSKNQVVLTMTNMDPVDTATYYCARGVPAYSHGGDKWGQGTLVTVSS VL: DIVMTQSPATLSLSPGERATLSCTSSQSVYHANWLSWFQQKPGQPPKLLIYWASTLAYGVPSRFSGSGSGTDFTLTISSLQPEDAATYYCAGGYGGGRYAFGQGTKVEIKR | – | – | 0.275 | 0.339 | 0.319 | 46.2 | 34.7 | 30.8 | 168 | 102 | 97 | – | – | – | – | – | – | – | – | – |
| MS_M103205H707-SG1/M103202L802-SK1 (antibody, human IgG1, kappa, V domains shown, also called MS1032LO04-SG1) VH: QVTLKESGPVLVKPTETLTLTCTVSGIDLSHYDISWVRQAPGKGLEWVGIISYAGSTYYASWAKGRLTISKDTSKNQVVLTMTNMDPVDTATYYCARGVPAYSHGGDLWGQGTLVTVSS VL: DIVMTQSPATLSLSPGERATLSCTSSQSVYHDNWLSWFQQKPGQPPKLLIYWASTLAYGVPSRFSGSGSGTDFTLTISSLQPEDAATYYCAGGYGGGLYAFGQGTKVEIKR | – | – | – | – | – | – | – | – | – | – | – | 0.163 | 0.000217 | 1.33e+06 | 9.13 | 0.00713 | 781000 | 0.812 | 0.00125 | 1.54e+06 |
| MS_M103205H781-SG1/M103202L813-SK1 (antibody, human IgG1, kappa, V domains shown, also called MS1032LO03-SG1) VH: QVTLKESGPVLVKPTETLTLTCTVSGIDLSHTDISWVRQAPGKGLEWVGIISYAGSTYYMSWAKGRLTISKDTSKNQVVLTMTNMDPVDTATYYCARGVPAYSHGGDLWGQGTLVTVSS VL: DIVMTQSPATLSLSPGERATLSCQTSQSVYHDNWLSWFQQKPGQPPKLLIYWASTLASGVPSRFSGSGSGTDFTLTISSLQPEDAATYYCAGGYGGGRYAFGQGTKVEIKR | – | – | – | – | – | – | – | – | – | – | – | 0.196 | 0.000192 | 981000 | 9.66 | 0.00524 | 543000 | 1.08 | 0.00117 | 1.08e+06 |
| MS_M103205H781-SG1/M103202L719-SK1 (antibody, human IgG1, kappa, V domains shown, also called MS1032LO02-SG1) VH: QVTLKESGPVLVKPTETLTLTCTVSGIDLSHTDISWVRQAPGKGLEWVGIISYAGSTYYMSWAKGRLTISKDTSKNQVVLTMTNMDPVDTATYYCARGVPAYSHGGDLWGQGTLVTVSS VL: DIVMTQSPATLSLSPGERATLSCQSSQSVYHNNWLSWFQQKPGQPPKLLIYWASTLAFGVPSRFSGSGSGTDFTLTISSLQPEDAATYYCAGGYGGGLYAFGQGTKVEIKR | – | – | – | – | – | – | – | – | – | – | – | 0.298 | 0.000249 | 836000 | 24.3 | 0.0414 | 1.7e+06 | 1.64 | 0.00179 | 1.08e+06 |

The next lines start with the values.

| binding result [1] | binding result [2] | Kd (human latent myostatin [3]) [nM] | Kd [4] [nM] | Kd (mouse latent myostatin [5]) [nM] | Kd (human latent myostatin [6]) [nM] | Kd [7] [nM] | Kd (mouse latent myostatin [8]) [nM] | ratio of KD at pH 5.8/pH7.4 (human latent myostatin [9]) | ratio of KD at pH 5.8/pH7.4 [10] | ratio of KD at pH 5.8/pH7.4 (mouse latent myostatin [11]) | Kd (human latent myostatin [12]) [nM] | koff (human latent myostatin [12]) [s⁻¹] | kon (human latent myostatin [12]) [M⁻¹ s⁻¹] | Kd (human latent myostatin [13]) [nM] | koff (human latent myostatin [13]) [s⁻¹] | kon (human latent myostatin [13]) [M⁻¹ s⁻¹] | Kd (human latent myostatin [14]) [nM] | koff (human latent myostatin [14]) [s⁻¹] | kon (human latent myostatin [14]) [M⁻¹ s⁻¹] | Binder |
| --- | --- | --- | --- | --- | --- | --- | --- | --- | --- | --- | --- | --- | --- | --- | --- | --- | --- | --- | --- | --- |
| binds | binds | – | – | – | – | – | – | – | – | – | – | – | – | – | – | – | – | – | – | M103205H795-SG1 S298L/M103202L889-SK1 (antibody, human IgG1, kappa, copies: 2 + 2) heavy: not shown light: DIVMTQSPATLSLSPGERATLSCTSSQSVYHANWLSWFQQKPGQPPKLLIYWASTLAYGVPSRFSGSGSGTDFTLTISSLQPEDAATYYCAGGYGGGRYAFGQGTKVEIKRTVAAPSVFIFPPSDEQLKSGTASVVCLLNNFYPREAKVQWKVDNALQSGNSQESVTEQDSKDSTYSLSSTLTLSKADYEKHKVYACEVTHQGLSSPVTKSFNRGEC |
| – | – | 0.419 | 0.502 | 0.362 | 143 | 43.5 | 29.2 | 341 | 87 | 81 | – | – | – | – | – | – | – | – | – | MS_M103205H1047-SG1/M103202L889-SK1 (antibody, human IgG1, kappa, V domains shown, also called MS1032LO11-SG1) VH: QVTLKESGPVLVKPTETLTLTCTVSGIDLSHTDISWVRQAPGKGLEWVGIISYAGKKYYASWAKGRLTISKDTSKNQVVLTMTNMDPVDTATYYCARGVPAYSHGGDLWGQGTLVTVSS VL: DIVMTQSPATLSLSPGERATLSCTSSQSVYHANWLSWFQQKPGQPPKLLIYWASTLAYGVPSRFSGSGSGTDFTLTISSLQPEDAATYYCAGGYGGGRYAFGQGTKVEIKR |
